Test: yeast display, Sf9 membrane polyspecificity reagent, FACS + sequencing; frameworks hold sequencing errors
Procedure, shortened: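 In a synthetic yeast display library (Saccharomyces cerevisiae BJ5465), nanobody expression was induced with galactose for 36–48 hours. FACS gates were set low and high (top ~1%) using anti-HA fluorescence for expression and streptavidin fluorescence for binding of the Sf9 membrane reagent. Each polyreactivity label is drawn from the gate of origin.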

Row | Sequence | polyreactivity (PSR sort gate)
1 | QVQLVESGGGLVQAGGSLRLSCAASGRTFGDNAMGWYRQAPWKERELVAAISRSGRTYYADSVKGRFTISRDNAKNTVYLQMNSLKPEYTAVYYCNTPYAHYVTHGLDYWGQGTQVTVSS | high polyreactivity
2 | QVQLVESGGGLVQAGGSLRLSCDASGSIFPVYAMGWYRQAPGKERELVAAISSRGGRTYYADSVKGRFTISRDNAKNTVYLQMNSLKPEDNAVYYCATDYATYYRLPSQYDYWGQGTQVTVSS | low polyreactivity
3 | QVQLVESGGGLDQAGGSLRLSCAASGITFQWYTMGWYIQAPGKERDLVATISSGGSTNYADSVKGRFTISRDNAKNTVYLQMKSLKPEDTAVYYCAKQPTVYHHYGLGYWGQGTQVTVSS | low polyreactivity
4 | QVQLVESGGGLVQAGGSLRLSCAASGLIFWYYAMGWYRQAPGTERELVASISSGGDTTYADSVKGRFTISRDNAKKTVYLQMNSLKPEDTAVYDCAAERYVRVWVAGILHYDYWGQGTQVTGSS | low polyreactivity
5 | QVQLVESVGGLVQAGGSLRLSCAASGRIFSVYTMGWYRQAPGKERELVAAISSGASTNYADSVKGRFTISRDNAKNTVYLQMNSLKPEDTAVYYCNAQWYLRLGASKTWVDVDYWGQGTQVTVSS | low polyreactivity
6 | QVQLVESGRGLVQAGGSLRLSCAASGFIFRYYAMGWYRQAPGKERELVAAINASGGRTYYADSVKGRFTISRDNARNSVYLQMNSLKPEDTAVYYCAAYRSYQTFDYWGQGTQVNVSS | high polyreactivity
7 | QVQLVESGGGLVQAGGSLRLSCAASGSTFGTNAMGWYRQAPGKEREFVASISVSGGSTYYADSVKGRFTISRDNAKNTVYLQMNSLKPEDTAVYYCNRRAYRRYQFGYWGQGTQVTVSS | high polyreactivity
8 | QVQLVESGGGLVQAGGSLRLSCASSGSTFKRYAMGWYRQAPGKERELVAAITLSGGNTYYADSVKGRFTISRDTAKNTVYLQLNSLKPEDTAVYYCAARRYRGYDYWGQGTQVTVTS | high polyreactivity
9 | QVQLVESGGGLVQAGGSLRLSCAASGSTSLVYAMGWYRQAPGKERELVAAISWSGGSTYYADSVKGRFTISRDNAKNTVYLQMKSLKPEDTAVYYCAAEYYGYWEYDYWGQGTQVTVSS | high polyreactivity
10 | QVQHVESGGGLVQAGGRLRLRCAASGSTFDDNAKGWYIHAPGKERELVAGISDGDDSTNYADSVKGRFTISRDNAKNTVYFQMNRLKPEDTAVYYCNARYVRTYGVRFGYDYWGQGTQLTVSS | low polyreactivity
11 | QVQLVESGVGLVQAGGSLRLSCASSGRILTYYAMGWYRQAPGKERELVASISSNGGTYYADSVKGRFTISRDNAKNTVYLQMNSLKPEDTAVYYCNAKRVARYQYGASYNYWGQGTQVTVSS | high polyreactivity
12 | QVQLVESAGGLVQAGGSLRLSCAASGFIFDVYAMGWYRQAPGKERELVAAISVSSTNYADSVKGRFTISRDNAKNTVYLQMNSLKPEDTAVYYCAADTYTYFLASYLYGQYDYWGQGTQVTVSS | low polyreactivity
13 | QVKLVESAGGLVQAGGSLRLSCAASGSIFPYNVMGWYRQAPGKERELVAAITRRGGSTYYADSVKGRFTISRDNAKNTVYLQMNSLKPEDSAVYYCAAVPYPRGIGYDYWGQGTQVTVSS | high polyreactivity
14 | QVQLVESGGGLVQAGCSLRLSCAASGRIFVKYTMGWYRQAPGKERELVAAIDFDTDSKYYADSVKGRFTFSRDNAKNTVYFQMNSLNPEDTAVYYCAADSYYYGYQGQTQYGWVWYDYWGQVTQVTVSS | low polyreactivity
15 | QVQHVESGGGLVQAGGSLRLSCAASGLNFTRYVMGWYRQAPGKERELVAVISSGGSTYYADSVKGRFTISRDNAKNTVYLQMNSLKPEDTAVYYCAAYLRYSQVTYDYWGQGTQVTVSS | high polyreactivity
16 | QVQLVESRGGLVQAGGSLRISCAASGRIFGYNAMGWYRQAPGKERELVAAISASGGRTYYADSVKARFTISRDNAKNTVYLQMNSLKPEDTAVYYCATKYRSFYSYDYWGQGTQVTVSS | high polyreactivity
17 | QVQLVESGGGLVQAGGSLRLSCAASGFTFGSNTMGWYRQAPGKERELVAAITTSGDSTYYADSVKGRFTISRDHAKNTVYLQMNSLKPEDTAVYYCAAERRYGRYYRLVRLLGQGTQVTVSS | high polyreactivity
18 | QVQLVESGGGLVQAGGSLRLSCAASGFILFFNAMGWYRAPWKERELVAGITQSGGSTYYADSVKGRFTISRDNAKNPVYLQMNSLKPEDTAVYYCAAELYDRWSRMDYWGQGTQVTVSS | low polyreactivity
19 | QVQLVESGGGLVQAVGSLRLSCAASGSTFSRYAMGWYRQAPGKERELVAAISWGGNTYYADSVKGRFTISRDNAKNTVYLQMNSLKPVDTAVYYCNRYSKLYNTMDYWGQGTQVTVSS | high polyreactivity
20 | QVQLVETGGGLVQAGGSLRLSCAASGFNFGPYDIGWYIQAPGKERELVAAITDSSGSTHYADSVKGRFTISRDNAKNTVYLQMNSLKPEDTAVYYWAADDSSRTTYDYWGQGTQVTVSS | low polyreactivity
21 | QVQHVESGGGLVQAGGSLRLSCAASALTFSSNAMGWYRQAPGKERELVAVITNGGSTNYADSVKGRLTISRDNAKNTVYLQMNSLKPEDTAVYYCAIDGGPAQDIGMDYWGQGTHVTVSS | low polyreactivity
22 | QVKLVESGGGLVQAGGSLRLSCAASGGTFTLYAMGWYRQAPGKERELVAAISTSGGSTYYADSVKGRFTISRDNAKNTVYLQMNSLKPEDTAVYYCAAVTRYAGRIRYGYWGQGTQVTVSS | high polyreactivity

Row | Sequence | polyreactivity (PSR sort gate)
23 | QVQLVESGGGLVQAGGSLRLSCAASGSTFYPNAMGWYRQAPGKERELVAAITGGGSTTYADSVKGRFTISRDNAKNTVYLQMNSLKQEDTAVYYCNTDGPRYARPYDSWGQGTQVTVSS | low polyreactivity
24 | QVQLVESGGGLDQAGGSLRLICAASVRTFFVNAMGRYRQAPGKERELVATITFSGDSTYYADSVKGRFTISRDNAKNTVYLQMNSLKPADTAVYYCAAYQGQKGYDYWGQGTQVTVSS | high polyreactivity
25 | QVQLVDSGGGLVQAGGSLRLSCSASGFTFAWYAMGWYRQAPGKERELVAAISGSGGRTYYADSVMGRFTISRDNAKNTVYLQMNSLIPEDTAVYYCATRRRYEYYWGQGTQVTVSS | high polyreactivity
26 | QVQLVESGGGLVQAGGSLRLSCAASGFIFYLYAMGWYRQAPGKEMELVAAISWGGGTTYYADSVKGRFTISRDNAKNTVYLKMNSLKPEDTAVYYCAAETEYYSYRFDYWGQGTQVTVSS | high polyreactivity
27 | QVQLVESGGGLVQAGGSLRLSCAASGSIFGYYTMGWYIQAPGKERELVAAITSGGSTNYADSVKGRFTISRDNAKNTVYLQMNSLKPEDTAVYYCAKVSYYPWRYDYWGQGTQVTVSS | low polyreactivity
28 | QVQLVESGGGLVQAGGSLRLSCAASGRNFSNYAMGWYRQAPGKERELVAAIRATGTTTYYADSVKGRFTISRDNAKNTVYLQMNSLKPDDTAVYYCAARGSRYRSSGYDYWGQGTQVTVSS | high polyreactivity
29 | QVQLVESGGGLVQAGGSLRLSCVASGRIIPCNAMGWYRQAPGKERELVAAISYGGGSTYYADSVKGRFTISRDNAKNTVYLQMNSLKPADTAVYYCAAASSGEYGYWGQGTQVTVSS | low polyreactivity
30 | QVQLVESGGGLVQAGGSLRLSFAASGHTFRYYAMGWYRQAPGKERELVAAITGGGGSTYYADSVKGRFTISRDNAKNTVYFQMNSLKPEDTAVYYCATGGVSGMVGGDYWGQGTQVTVSS | low polyreactivity
31 | QVQLVESGGGLDQAGGSLRLSCAASGFIFKYYVMGWYRQAPGKERELVAAISLSDARTNYADSVKGRFTISRDNAKNTVYLQMHSLKPVDTAFYYCAAKSHYYTSGHRHYDYWGQGTQVTVSS | high polyreactivity
32 | QVQLVESGGGLVQAGGSLRLSCAASGLTFDWYAMGWYRQAPGKERELVAAISWNGVSTDYADSVKGRFTISRDNAKYTVYLQMNRLKPEDTAVYYCAADPPWYLYVGFDYWGQGTQVNVSS | high polyreactivity
33 | QVQLVESGGGLVQAGGSLRLSCAASGRISVVNAMGWYRQAPGKERELVATINRGGSTYADSVKGRFTISRDNAKNTVYLQMNSLKPEDTAVYYCAATSFSVRFTRYYYWGQGTQVTVSS | high polyreactivity
34 | QVQLVESGGGLVQAGGSLRLSCAASGFTFTHYAMGWYRQAPGKERELVAAISTSGGSTYYADSVKGRFTISRDNAKNTVYLQMNSLKPEDTAVYYCAARRDGWVQWGYYYWGQGTQVTVSS | low polyreactivity
35 | QVQLVESGGGLVQAGGSLRLSCAASGSTFKSYTMGWYRQAPGKERELVAAISGSGGRTYYADSVKGRFTISRDNAKNTVYLQMNSLKPEDTAVYYCAATGPYGFYWGQGTQVTVSS | high polyreactivity
36 | QVQLVESGGGLVQAGGSLRLSCAASGSTFTIYAMGWYRQAPGKEREFVAAIDEDDGSTYYADSVKGRFTISRDNAKNTVYLQMNSLKPEDTAVYYCNADDIWGYAFDYWGQGTQVTVSS | low polyreactivity
37 | QVQLVESGGGLVQAGGSLRLSCAASGFTFYGYAMGWYRQAPGKERELVAAISRSGVRTYYADSVKGRFTISRDNAKNTVYLQMNSLKPEDTAVYYCNAVPRYGYYWGQGTQVTVSS | high polyreactivity
38 | QFQLVESGGGLVQAGGSIRSSCAASGIIFWGNAMGWYRQAPGKESELVATITGRGGSTYYADSVKGRFTISRDNAKNTVYLQMNSLKPEDTAVYYCNADSSRYYRALEYWGQGTQVTVSS | low polyreactivity
39 | QVQLVESGGGLVQAGGSLRLSCAASGSISSFYAMGWYRQAPGKERELVAGITSGGSTNYADSVNGRFTISRDNAKNTVYLKLNSLNPEDTAVFYCAAERTPSYRAYDYWGKGTQVTVSS | low polyreactivity
40 | QVQLVESGGGLVQAGGSLRLSCAASGRTFATYAMGWYRQAPGKERELVAAISNSGGRTNYADSVKGRFTISRDNAKNTVYLQMNSLKPEDTAVYYCAAAKRYYSEMYWGQGTQVTVSS | high polyreactivity
41 | QVQLVESGGGLVQAGGSLRLSCAATGFTFSRNTMGWYRQAPGKERELGARITKRGGTTYYADSVKGRFTISRDNAKNTVYLQMNCLKPEDSAVYYCAAATQNPGSDYWGQGTQVTVSS | high polyreactivity
42 | QVQLVESGGGLVQAGGSLRLSCAASGIIFGWYAMGWYRPAPGKERELVAGISIGGSTYYADSVKGRFTISRDNANNTVYLQMNSLKPEDTAVYYCAADSYFVLPWSDYWGQGTQVTVSS | high polyreactivity
43 | QVQLVESGGGLVQAGGSLRLSCAASGRIFRYYAMGWYRQAPGKERELVASSTYYADSVKGRFTISRDNAKNTVYLQMNSLKPEDTAVYYCAAVKGTRGWYDYWGQGTQVTVSS | high polyreactivity
